Laboratory results published in the supplement of paper PMC10065799, “High-throughput profiling of sequence recognition by tyrosine kinases and SH2 domains using bacterial peptide display” (eLife, 2023).

Key:
Jak2 = Jak2 (UniProt O60674); test: phosphorylation enrichment, bacterial display (enrichment ratio); higher = better substrate or ligand; peptides without Tyr show the background
Hck = Hck (UniProt P08631); test: as above
c-Src = test: as above
MERTK = MERTK (UniProt Q12866); test: as above
Fer (mouse) = test: as above
FGFR3 = FGFR3 (UniProt P22607); test: as above
Sequence of FGFR3 (P22607 whole entry, looked up): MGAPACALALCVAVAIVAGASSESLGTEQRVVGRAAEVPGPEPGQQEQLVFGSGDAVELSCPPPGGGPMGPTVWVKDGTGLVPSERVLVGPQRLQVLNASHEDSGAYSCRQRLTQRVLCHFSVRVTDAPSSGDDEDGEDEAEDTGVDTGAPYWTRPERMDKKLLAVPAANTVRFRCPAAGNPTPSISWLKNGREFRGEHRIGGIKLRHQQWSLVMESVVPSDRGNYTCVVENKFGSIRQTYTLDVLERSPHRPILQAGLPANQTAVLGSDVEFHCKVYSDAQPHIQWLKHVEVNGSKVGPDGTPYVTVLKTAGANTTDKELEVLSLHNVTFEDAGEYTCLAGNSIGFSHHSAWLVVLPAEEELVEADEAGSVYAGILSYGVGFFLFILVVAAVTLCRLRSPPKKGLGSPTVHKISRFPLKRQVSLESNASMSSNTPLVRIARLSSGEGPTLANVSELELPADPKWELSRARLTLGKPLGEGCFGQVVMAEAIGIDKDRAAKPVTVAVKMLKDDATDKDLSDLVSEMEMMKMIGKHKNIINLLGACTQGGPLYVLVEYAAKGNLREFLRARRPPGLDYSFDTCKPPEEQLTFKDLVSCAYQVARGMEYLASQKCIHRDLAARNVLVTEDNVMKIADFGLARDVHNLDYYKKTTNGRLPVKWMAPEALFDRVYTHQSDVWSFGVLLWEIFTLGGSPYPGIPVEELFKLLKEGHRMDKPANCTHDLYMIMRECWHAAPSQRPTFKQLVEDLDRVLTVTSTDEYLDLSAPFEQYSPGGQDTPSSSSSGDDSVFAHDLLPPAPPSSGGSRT

AncSZ = test: as above
EPHB1 = EPHB1 (UniProt P54762); test: as above
Sequence of EPHB1 (P54762 whole entry, looked up): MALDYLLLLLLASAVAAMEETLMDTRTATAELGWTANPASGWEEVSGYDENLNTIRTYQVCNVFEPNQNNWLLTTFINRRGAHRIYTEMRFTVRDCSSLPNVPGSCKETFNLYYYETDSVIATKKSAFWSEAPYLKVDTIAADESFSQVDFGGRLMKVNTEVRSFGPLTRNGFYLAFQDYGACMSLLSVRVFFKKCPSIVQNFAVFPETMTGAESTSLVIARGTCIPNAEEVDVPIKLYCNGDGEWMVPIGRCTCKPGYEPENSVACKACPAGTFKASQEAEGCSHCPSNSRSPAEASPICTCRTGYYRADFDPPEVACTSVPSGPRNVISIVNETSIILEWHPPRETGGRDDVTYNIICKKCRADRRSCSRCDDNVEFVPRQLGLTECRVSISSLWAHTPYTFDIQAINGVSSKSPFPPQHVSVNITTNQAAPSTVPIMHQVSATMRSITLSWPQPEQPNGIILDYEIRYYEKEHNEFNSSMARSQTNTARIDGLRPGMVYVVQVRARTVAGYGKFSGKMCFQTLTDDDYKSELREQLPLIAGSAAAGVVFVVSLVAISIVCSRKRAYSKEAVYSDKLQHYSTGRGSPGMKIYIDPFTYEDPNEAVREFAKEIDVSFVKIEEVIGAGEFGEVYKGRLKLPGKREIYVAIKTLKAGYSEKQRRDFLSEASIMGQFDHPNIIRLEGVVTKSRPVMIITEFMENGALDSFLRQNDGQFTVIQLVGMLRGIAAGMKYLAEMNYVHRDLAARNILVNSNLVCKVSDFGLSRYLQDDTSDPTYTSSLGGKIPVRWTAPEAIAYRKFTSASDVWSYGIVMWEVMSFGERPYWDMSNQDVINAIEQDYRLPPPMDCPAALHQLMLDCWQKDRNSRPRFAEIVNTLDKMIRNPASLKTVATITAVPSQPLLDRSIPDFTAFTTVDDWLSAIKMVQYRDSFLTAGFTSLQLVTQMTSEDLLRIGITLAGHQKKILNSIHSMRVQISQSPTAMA

c-Abl (mouse) = test: as above
Fyn = Fyn (UniProt P06241); test: as above
EPHB2 = EPHB2 (UniProt P29323); test: as above
Sequence of EPHB2 (P29323 whole entry, looked up): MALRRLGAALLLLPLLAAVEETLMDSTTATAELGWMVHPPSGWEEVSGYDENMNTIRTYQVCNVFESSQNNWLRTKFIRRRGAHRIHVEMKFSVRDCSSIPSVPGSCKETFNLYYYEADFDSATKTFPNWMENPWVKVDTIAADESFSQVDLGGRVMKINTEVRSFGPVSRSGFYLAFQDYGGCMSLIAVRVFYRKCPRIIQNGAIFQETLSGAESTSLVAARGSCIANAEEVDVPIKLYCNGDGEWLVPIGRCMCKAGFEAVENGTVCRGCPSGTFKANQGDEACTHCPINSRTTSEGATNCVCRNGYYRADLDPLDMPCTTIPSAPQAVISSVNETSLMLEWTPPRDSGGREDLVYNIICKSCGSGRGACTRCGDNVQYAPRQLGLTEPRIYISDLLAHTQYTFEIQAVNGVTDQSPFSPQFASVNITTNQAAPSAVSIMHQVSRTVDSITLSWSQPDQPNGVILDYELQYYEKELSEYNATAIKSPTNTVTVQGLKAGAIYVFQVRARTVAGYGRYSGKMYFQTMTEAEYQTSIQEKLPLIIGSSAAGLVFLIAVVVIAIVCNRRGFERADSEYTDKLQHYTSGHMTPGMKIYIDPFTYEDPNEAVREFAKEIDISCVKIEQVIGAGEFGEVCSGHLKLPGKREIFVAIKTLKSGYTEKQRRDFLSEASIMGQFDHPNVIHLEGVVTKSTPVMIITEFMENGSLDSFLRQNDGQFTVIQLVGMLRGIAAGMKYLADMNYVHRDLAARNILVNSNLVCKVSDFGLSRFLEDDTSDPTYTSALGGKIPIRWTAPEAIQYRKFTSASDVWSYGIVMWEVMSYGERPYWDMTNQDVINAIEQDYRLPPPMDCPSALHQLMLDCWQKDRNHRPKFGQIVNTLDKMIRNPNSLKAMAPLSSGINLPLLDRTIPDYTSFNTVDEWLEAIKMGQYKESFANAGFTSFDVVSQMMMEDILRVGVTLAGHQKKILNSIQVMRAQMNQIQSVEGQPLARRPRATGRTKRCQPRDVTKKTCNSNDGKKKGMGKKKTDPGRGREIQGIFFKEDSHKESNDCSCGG

Fes = Fes (UniProt P07332); test: as above
FGFR1 = FGFR1 (UniProt P11362); test: as above
Grb2 SH2 = Grb2 SH2 (UniProt P62993); test: SH2 binding enrichment of the phosphorylated peptide, bacterial display (enrichment ratio); higher = better substrate or ligand; peptides without Tyr show the background
Sequence of Grb2 SH2 (P62993 whole entry, looked up): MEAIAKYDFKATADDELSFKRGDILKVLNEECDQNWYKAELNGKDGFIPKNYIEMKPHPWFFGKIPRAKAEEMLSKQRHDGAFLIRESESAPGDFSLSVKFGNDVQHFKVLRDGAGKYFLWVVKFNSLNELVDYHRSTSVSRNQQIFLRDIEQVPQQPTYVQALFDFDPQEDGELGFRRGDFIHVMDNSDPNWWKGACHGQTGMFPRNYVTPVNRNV

c-Src SH2 = test: as above
SHP2-C SH2 = test: as above
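Wherever SH2 binding enrichment of the phosphorylated peptide, bacterial display is given: peptide library displayed on the E. coli surface as eCPX fusions, selected cells deep-sequenced, score is each peptide's frequency after selection divided by its frequency in the input.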
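Wherever phosphorylation enrichment, bacterial display is given: 11-residue human phosphosite peptides and single-mutation variants displayed on the E. coli surface, counted by deep sequencing, each peptide's frequency after selection divided by its frequency in the unselected input library; frequency after pTyr selection over input frequency; kinase dosed for 20-30% of maximal phosphorylation in three min.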

Sequence of Jak2 (O60674 whole entry, looked up): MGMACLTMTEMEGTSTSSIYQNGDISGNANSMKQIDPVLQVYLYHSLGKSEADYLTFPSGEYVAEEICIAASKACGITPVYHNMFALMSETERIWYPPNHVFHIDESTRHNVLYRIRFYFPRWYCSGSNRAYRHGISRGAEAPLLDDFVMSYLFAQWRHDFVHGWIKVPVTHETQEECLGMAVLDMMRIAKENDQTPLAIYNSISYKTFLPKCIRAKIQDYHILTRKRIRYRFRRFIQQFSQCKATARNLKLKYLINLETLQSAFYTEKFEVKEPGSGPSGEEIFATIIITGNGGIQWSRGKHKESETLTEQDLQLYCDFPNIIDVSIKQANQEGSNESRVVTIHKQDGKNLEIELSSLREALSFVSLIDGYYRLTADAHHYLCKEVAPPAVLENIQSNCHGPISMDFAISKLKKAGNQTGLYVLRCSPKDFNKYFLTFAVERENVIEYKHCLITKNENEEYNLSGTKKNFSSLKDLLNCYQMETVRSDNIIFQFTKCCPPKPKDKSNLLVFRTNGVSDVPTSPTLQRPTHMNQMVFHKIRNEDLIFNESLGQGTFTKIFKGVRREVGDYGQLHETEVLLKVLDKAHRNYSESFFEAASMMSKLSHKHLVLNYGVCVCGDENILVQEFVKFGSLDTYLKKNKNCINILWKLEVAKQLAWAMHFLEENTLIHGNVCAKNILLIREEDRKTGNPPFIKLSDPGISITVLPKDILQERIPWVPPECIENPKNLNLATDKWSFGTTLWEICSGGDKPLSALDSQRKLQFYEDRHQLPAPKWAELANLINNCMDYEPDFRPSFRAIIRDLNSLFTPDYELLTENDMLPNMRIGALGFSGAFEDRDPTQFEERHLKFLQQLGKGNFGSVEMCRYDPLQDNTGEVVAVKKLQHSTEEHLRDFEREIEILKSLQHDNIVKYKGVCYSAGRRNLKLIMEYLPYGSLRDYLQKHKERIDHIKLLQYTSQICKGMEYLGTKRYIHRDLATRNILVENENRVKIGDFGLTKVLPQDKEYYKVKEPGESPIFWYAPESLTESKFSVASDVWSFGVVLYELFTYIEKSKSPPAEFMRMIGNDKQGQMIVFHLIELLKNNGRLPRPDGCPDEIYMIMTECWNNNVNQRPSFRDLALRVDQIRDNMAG
Sequence of Hck (P08631 whole entry, looked up): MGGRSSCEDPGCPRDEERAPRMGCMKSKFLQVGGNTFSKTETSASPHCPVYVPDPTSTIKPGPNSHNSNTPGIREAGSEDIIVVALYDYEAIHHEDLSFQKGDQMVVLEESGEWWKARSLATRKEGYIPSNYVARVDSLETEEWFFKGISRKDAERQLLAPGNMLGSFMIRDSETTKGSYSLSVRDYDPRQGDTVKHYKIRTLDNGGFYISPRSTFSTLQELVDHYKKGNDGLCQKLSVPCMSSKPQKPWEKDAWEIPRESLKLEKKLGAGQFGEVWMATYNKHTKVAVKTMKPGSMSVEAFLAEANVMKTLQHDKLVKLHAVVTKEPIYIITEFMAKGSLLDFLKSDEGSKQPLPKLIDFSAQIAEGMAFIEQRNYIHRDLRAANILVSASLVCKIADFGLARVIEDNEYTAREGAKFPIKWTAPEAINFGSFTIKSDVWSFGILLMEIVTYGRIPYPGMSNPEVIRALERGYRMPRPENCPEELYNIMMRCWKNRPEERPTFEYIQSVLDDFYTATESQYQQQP

| Sequence | phosphorylation enrichment (Jak2) | phosphorylation enrichment (Hck) | phosphorylation enrichment (c-Src) | phosphorylation enrichment (MERTK) | phosphorylation enrichment (Fer (mouse)) | phosphorylation enrichment (FGFR3) | phosphorylation enrichment (AncSZ) | phosphorylation enrichment (EPHB1) | phosphorylation enrichment (c-Abl (mouse)) | phosphorylation enrichment (Fyn) | phosphorylation enrichment (EPHB2) | phosphorylation enrichment (Fes) | phosphorylation enrichment (FGFR1) | SH2 binding enrichment (Grb2 SH2) | SH2 binding enrichment (c-Src SH2) | SH2 binding enrichment (SHP2-C SH2) |
| --- | --- | --- | --- | --- | --- | --- | --- | --- | --- | --- | --- | --- | --- | --- | --- | --- |
| EHTTLYSNNST [KANSL1_Y223] | 0.575 | 0.568 | 0.455 | 0.386 | 0.602 | 0.431 | 0.632 | 0.387 | 0.487 | 0.423 | 0.53 | 0.65 | 0.356 | 0.846 | 0.651 | 0.863 |
| EIRTQYEAMAS [GFAP_Y242] | 0.682 | 0.534 | 0.472 | 0.415 | 0.483 | 0.523 | 0.691 | 0.45 | 0.676 | 0.55 | 0.577 | 0.778 | 0.638 | 0.702 | 2.62 | 1.14 |
| EKFVPYYDLFM [IPO5_Y530] | 1.47 | 3.27 | 4.22 | 7.26 | 3.71 | 5.89 | 1.2 | 4.82 | 0.787 | 3.05 | 6.87 | 1.18 | 6.89 | 1.72 | 3.84 | 1.46 |
| EKQARYEIVEE [CDH5_Y223_V227E] | 1.09 | 0.667 | 0.521 | 0.644 | 0.56 | 0.798 | 1.2 | 0.582 | 0.749 | 0.542 | 0.565 | 1.24 | 0.506 | 0.897 | 18.8 | 0.921 |
| ELAINYQEQAS [SLC9A9_Y591] | 0.832 | 0.643 | 0.403 | 0.416 | 0.524 | 0.674 | 0.923 | 0.526 | 0.504 | 0.539 | 0.469 | 0.869 | 0.522 | 0.905 | 0.536 | 0.556 |
| ELCSEYHKSRK [SPINK5_Y440_R441H] | 0.945 | 0.442 | 0.633 | 0.532 | 0.507 | 0.53 | 0.73 | 0.405 | 0.999 | 0.487 | 0.412 | 1.02 | 0.513 | 0.824 | 0.484 | 0.679 |
| ELTSVYDSRAR [SENP1_Y349] | 0.592 | 1.62 | 1.03 | 0.52 | 0.432 | 0.574 | 0.585 | 0.35 | 0.557 | 0.697 | 0.507 | 0.624 | 0.491 | 0.761 | 0.397 | 0.395 |
| ENELTYYCCKK [CD59_Y86] | 1.77 | 2.47 | 2.74 | 1.08 | 0.779 | 1.22 | 1.57 | 0.505 | 1.26 | 1.72 | 0.97 | 0.955 | 2.21 | 0.953 | 0.483 | 0.82 |
| EPSVDCCVVKI [CAD_Y735_Y735C] | 1.01 | 0.371 | 0.369 | 0.376 | 0.411 | 0.586 | 1.07 | 0.449 | 0.816 | 0.336 | 0.499 | 1.18 | 0.432 | 0.887 | 0.494 | 1 |
| EPTPSYEVGQR [TSC2_Y1788_G1787S] | 0.686 | 0.486 | 0.428 | 0.383 | 0.408 | 0.581 | 0.726 | 0.443 | 0.627 | 0.427 | 0.426 | 0.895 | 0.462 | 0.827 | 0.533 | 0.738 |
| EPYEVYRIVPE [IRF8_Y110_K108E] | 0.994 | 4.62 | 6.54 | 1.05 | 8.85 | 3.35 | 3.39 | 1.45 | 1.25 | 6.69 | 1.9 | 1.15 | 4.53 | 0.981 | 0.578 | 0.758 |
| EQAERYDDMAA [YWHAG_Y20] | 0.87 | 0.501 | 0.426 | 0.407 | 0.501 | 0.737 | 1.22 | 0.508 | 0.653 | 0.537 | 0.51 | 1.03 | 0.547 | 0.966 | 1.3 | 0.617 |
| EQKKFYNATKK [SCN5A_Y1495_M1498T_YF] | 0.436 | 0.449 | 0.554 | 0.404 | 0.374 | 0.487 | 0.668 | 0.383 | 0.497 | 0.437 | 0.348 | 0.674 | 0.412 | 0.996 | 0.606 | 0.729 |
| ERDTVYSSSGV [NELL2_Y350_N347D] | 0.601 | 1.5 | 1.79 | 0.42 | 0.451 | 0.584 | 0.711 | 0.435 | 0.617 | 1.78 | 0.52 | 0.883 | 0.502 | 0.847 | 0.447 | 0.492 |
| EREYKYGAHKY [OAT_Y50_N54K] | 0.509 | 0.392 | 0.359 | 0.436 | 0.398 | 0.441 | 0.626 | 0.376 | 0.571 | 0.369 | 0.452 | 0.625 | 0.414 | 0.735 | 0.564 | 0.639 |
